From patent US20040152193A1 (LUDWIG INSTITUTE FOR CANCER RESEARCH, published 2004) come the findings set out here.

Experiment [1] has as its target HLA-A*0201 (human). Nature of the experiment: cell-based or functional assay.
Experiment [2] concerns the target HLA-A*0201 (human). Nature of the experiment: cell-based or functional assay. The source holds these as a separate data set.

B1: MAGE-3 TRAP 168-176 peptide EVDPIGHLY (peptide)
peptide: EVDPIGHLY
For B1, in the experiment with HLA-A*0201 [1], the “Competitor [µM] 50%” value was above 100 µM and the Relative competitor activity is < 0.6 ratio to SEQ ID NO: 2.

B2: Melan-A 32-40 nonapeptide ILTVILGVL (peptide)
peptide: ILTVILGVL
For B2, the “Relative Competitor Activity, Exp3” value with HLA-A*0201 [2] was 2 ratio to SEQ ID NO: 2.
